Like-named read-outs stand apart in the source and are kept apart here.
What was measured:
[1] = target: T1, IGSF11 ECD fused to murine-Fc (human; mouse, UniProt Q5DX21 23-241); assay: ELISA, IgG
T1 construct: also called Fc-fusion IGSF11 ECD; full-length ECD of IGSF11; not shown: murine Fc
T1 sequence: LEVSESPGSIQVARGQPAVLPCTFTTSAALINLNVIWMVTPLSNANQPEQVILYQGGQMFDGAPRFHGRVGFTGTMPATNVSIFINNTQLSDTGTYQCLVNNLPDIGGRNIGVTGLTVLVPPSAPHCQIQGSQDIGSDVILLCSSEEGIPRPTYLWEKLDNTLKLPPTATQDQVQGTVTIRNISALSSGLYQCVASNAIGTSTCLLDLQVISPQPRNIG

[2] = target: T2, IgV domain of human IGSF11 fused to murine IgG2a Fc-region (human; mouse, UniProt Q5DX21 23-143); assay: ELISA, IgG
T2 construct: also called IgV-like domain mFc fusion; not shown: murine IgG2a Fc-region
T2 sequence: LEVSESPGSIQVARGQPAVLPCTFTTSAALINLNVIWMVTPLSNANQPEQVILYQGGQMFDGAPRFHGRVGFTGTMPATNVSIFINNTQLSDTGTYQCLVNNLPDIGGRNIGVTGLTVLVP

[3] = target: T3, recombinant human IGSF11 (VSIG3) extracellular domain (ECD) (human, UniProt Q5DX21 23-241, biotinylated where captured on streptavidin); assay: BLI, IgG1
T3 construct: also called biotinylated recombinant ECD-IGSF11; IGSF11 (ECD domain)
T3 sequence: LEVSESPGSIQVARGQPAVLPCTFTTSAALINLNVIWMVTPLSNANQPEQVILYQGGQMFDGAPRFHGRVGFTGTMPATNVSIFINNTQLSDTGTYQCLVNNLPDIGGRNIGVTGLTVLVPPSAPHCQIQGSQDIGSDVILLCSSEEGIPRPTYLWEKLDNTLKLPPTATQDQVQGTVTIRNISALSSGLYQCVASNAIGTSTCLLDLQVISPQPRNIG

[4] = target: T3, recombinant human IGSF11 (VSIG3) …; assay: SPR, IgG1
[5] = target: T1, IGSF11 ECD fused to murine-Fc; assay: ELISA, IgG; remark: listed apart in the source
From the text: (§1) Expi293 cells (ThermoFisher) were transiently transfected with DNA sequences encoding the applicable IGSF11 domain-mFc fusions according to the manufacturer's instructions, and cultured under conditions suitable to the IGSF11 domain fusion. Cell supernatants were harvested 5 days post transfection and the expressed Fc-protein purified via Protein A affinity chromatography (GE Healthcare). IGSF11 domain Fc-fusion proteins were re-buffered into PBS pH7.4. […] The surface was blocked with 2% (w/v) skim milk powder in PBST. After three wash cycles with PBST, a dilution series of IgG-format ABPs was transferred to the immobilized the Fc-fusion IGSF11 ECD or the IGSF11 domains and incubated for 1 h. After removing all unbound antibodies by 3 wash cycles with PBST, bound IgG ABPs were detected with a goat anti-human IgG antibody conjugated with horseradish peroxidase. After three wash cycles with PBST the ELISA was developed with TMB substrate.

[6] = target: T4, human IGSF11 (VSIG3) on cells (human, UniProt Q5DX21 23-431); assay: FACS, DMS 273 cells
T4 sequence: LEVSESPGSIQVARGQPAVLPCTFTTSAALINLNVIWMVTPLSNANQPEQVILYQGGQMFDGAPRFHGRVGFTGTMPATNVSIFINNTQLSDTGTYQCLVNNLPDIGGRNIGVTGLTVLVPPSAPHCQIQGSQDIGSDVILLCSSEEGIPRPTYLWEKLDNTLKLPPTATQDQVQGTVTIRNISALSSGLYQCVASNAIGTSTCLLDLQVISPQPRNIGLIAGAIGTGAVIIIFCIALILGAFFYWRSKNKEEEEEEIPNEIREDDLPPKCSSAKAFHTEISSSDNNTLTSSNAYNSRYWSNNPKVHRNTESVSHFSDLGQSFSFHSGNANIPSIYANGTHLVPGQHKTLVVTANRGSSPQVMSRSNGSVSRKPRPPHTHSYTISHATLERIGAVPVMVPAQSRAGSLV

[7] = target: T5, His-tagged extracellular domain (ECD) of human IGSF11 (VSIG3) (human, UniProt Q5DX21 23-241); assay: ELISA EC50 grade, IgG1
T5 construct: partly bought (SinoBiological 13094-H08H); also called IGSF11-HIS; HIS-IGSF11; not shown: HIS6 tag
T5 sequence: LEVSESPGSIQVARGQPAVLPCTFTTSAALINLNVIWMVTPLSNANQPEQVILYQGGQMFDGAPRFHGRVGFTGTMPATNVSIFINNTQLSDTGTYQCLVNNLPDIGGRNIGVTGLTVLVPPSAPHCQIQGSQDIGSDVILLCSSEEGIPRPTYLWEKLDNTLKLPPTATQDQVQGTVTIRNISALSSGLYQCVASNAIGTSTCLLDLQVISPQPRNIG

[8] = target: T4, human IGSF11 (VSIG3) on cells; assay: FACS, HEK cells expressing IGSF11
[9] = target: T3, recombinant human IGSF11 (VSIG3) …; assay: BLI, apparent affinity, IgG captured, IGSF11 ECD 100 nM
From the text: Briefly, various APBs were loaded on an optical biosensor via a commercially available Capture System (AHC sensors, ForteBio).

[10] = target: T4, human IGSF11 (VSIG3) on cells; assay: FACS, IgG1-format antibodies; DMS 273 cells (D) treated with IGSF11 siRNA (KD)
[11] = target: T4, human IGSF11 (VSIG3) on cells; assay: FACS, IgG1-format antibodies; M579-A2-luc cells (M) treated with IGSF11 siRNA (KD)
[12] = target: T4, human IGSF11 (VSIG3) on cells; assay: FACS, IgG1-format antibodies; DMS 273 cells (D) treated with scrambled control siRNA (SC)
[13] = target: T4, human IGSF11 (VSIG3) on cells; assay: FACS, IgG1-format antibodies; M579-A2-luc cells (M) treated with scrambled control siRNA (SC)
[14] = target: T1, IGSF11 ECD fused to murine-Fc; assay: ELISA: IgG titrated on coated murine-Fc fusion of IGSF11 ECD; x axis IgG nM, y axis absorption per legend
From the text: as §1

[15] = target: T5, His-tagged extracellular domain (ECD) …; assay: ELISA: IgG1-format antibody titrated on coated His-tagged IGSF11; x axis nM IgG, y axis absorbance per legend
[16] = target: T4, human IGSF11 (VSIG3) on cells; assay: FACS, IgG1-format antibodies; CL-11 cells (C), a line that does not express IGSF11 (specificity control), IGSF11 siRNA (KD)
[17] = target: T4, human IGSF11 (VSIG3) on cells; assay: FACS, IgG1-format antibodies; CL-11 cells (C), a line that does not express IGSF11 (specificity control), scrambled control siRNA (SC)
[18] = target: T5, His-tagged extracellular domain (ECD) …; assay: blocking ELISA: IgG pre-incubated with His-tagged IGSF11 ECD, complexes added to immobilised VSIR-Fc; y axis % remaining IGSF11 binding, x axis IgG nM per legend
Method: All binding steps were for 1 hour at room temperature, and all washing steps were three times washing with PBS/Tween (0.05%).

[19] = target: T5, His-tagged extracellular domain (ECD) …; assay: blocking ELISA: antibody pre-incubated with His-tagged IGSF11 ECD, complexes added to immobilised VSIR-Fc; y axis % remaining IGSF11 binding to VSIR, x axis nM IgG per legend
[20] = target: T1, IGSF11 ECD fused to murine-Fc; assay: ELISA: IgG titrated on coated murine-Fc fusion of IGSF11 ECD; x axis IgG nM, y axis absorption per legend; remark: listed apart in the source
From the text: as §1

[21] = target: T6, IgC2 domain of human IGSF11 fused to murine IgG2a Fc-region (human; mouse, UniProt Q5DX21 137-241); assay: ELISA, IgG
T6 construct: also called IgC2-like domain mFc fusion; not shown: murine IgG2a Fc-region
T6 sequence: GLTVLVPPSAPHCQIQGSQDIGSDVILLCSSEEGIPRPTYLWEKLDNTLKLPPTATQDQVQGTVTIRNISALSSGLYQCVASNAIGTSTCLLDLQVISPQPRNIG

B1: C-025 (IgG1 format) (antibody, V domains shown)
VH: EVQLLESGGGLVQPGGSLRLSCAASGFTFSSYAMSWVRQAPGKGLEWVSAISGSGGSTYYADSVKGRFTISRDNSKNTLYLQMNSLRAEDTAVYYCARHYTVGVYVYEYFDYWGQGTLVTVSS
VL: SYELTQPPSVSVSPGQTASITCSGDKLGDKYASWYQQKPGQSPVLVIYQDSKRPSGIPERFSGSNSGNTATLTISGTQAEDEADYYCQSYATAGFVFGGGTKLTVL
notes: wildtype human IgG1 and kappa or lambda constant regions
[1]
  EC50: 1 to 20 nM
[2]
  EC50: < 1 nM

B2: A-006 (IgG1 format) (antibody, V domains shown)
VH: EVQLVESGGGLIQPGGSLRLSCAASGFTVSSNYMSWVRQAPGKGLEWVSVIYSGGSTYYADSVKGRFTISRDNSKNTLYLQMNSLRAEDTAVYYCARGNPYYYGDLQVNFDYWGQGTLVTVSS
VL: QAVVTQEPSLTVSPGGTVTLTCASSTGAVTSGYYPNWFQQKPGQAPRPLIYSTSNKHSWTPARFSGSLLGGKAALTLSGVQPDDEAEYYCLLYYGGDWVFGGGTKLTVL
notes: human IgG1 format; also called A-006-like ABP
[3]
  Kd: 1 to 10 nM
[4]
  Kd: 250 to 500 nM
[5]
  EC50: < 1 nM
[6]
  EC50: > 50 nM
[7]
  EC50: < 0.02 nM
[8]
  EC50: 10 to 50 nM
[9]
  Kd: < 15 nM
[10]
  percentage binding (FACS heat-map): 5.72%
[11]
  percentage binding (FACS heat-map): 2.59%
[12]
  percentage binding (FACS heat-map): 81.1%
[13]
  percentage binding (FACS heat-map): 75.3%
[14]
  EC50 (read off the curve): ~0.5 nM
[15]
  EC50 (read off the curve): ~0.01 nM
[16]
  percentage binding (FACS heat-map): 3.04%
[17]
  percentage binding (FACS heat-map): 2.31%
[18]
  IC50 (read off the curve): ~4 nM
[19]
  IC50 (read off the curve): ~4 nM

B3: A-024 (IgG1 format) (antibody, V domains shown)
VH: QMQLVQSGAEVKKPGSSVKVSCKASGGTFSSYAISWVRQAPGQGLEWMGWISAYNGNTNYAQKLQGRVTMTTDTSTSTAYMELRSLRSDDTAVYYCASLGSYGYTGAFDIWGQGTMATVSS
VL: QSALTQPASVSGSPGQSITISCTGTSSDVGGYNYVSWYQQHPGKAPKLMIYEVSNRPSGVSNRFSGSKSGNTASLTISGLQAEDEADYYCSSYTSSSTLVVFGGGTKLTVL
notes: also called A-024-like ABP
[4]
  Kd: > 500 nM
[5]
  EC50: < 1 nM
[6]
  EC50: < 10 nM
[7]
  EC50: 0.02 to 0.05 nM
[20]
  EC50 (read off the curve): ~0.4 nM

B4: A-026 (IgG1 format) (antibody, V domains shown)
VH: QVQLQESGPGLVKPSQTLSLTCTVSGGSISSGGYYWSWIRQHPGKGLEWIGYIYYSGSTYYNPSLKSRVTISVDTSKNQFSLKLSSVTAADTAVYYCASWSLGTSNHGWFDPWGQGTLVTVSS
VL: QSVLTQPPSASGTPGQRVTISCSGSSSNIGSNTVNWYQQLPGTAPKLLISDNNNRPSGVPDRFSGSKSGTSASLAITGLQAEDEADYYCQSYDSNLSGWVFGGGTKLTVL
notes: human IgG1 format
[3]
  Kd: 20 to 30 nM
[4]
  Kd: > 500 nM
[5]
  EC50: 1 to 20 nM
[21]
  EC50: 1 to 20 nM
[7]
  EC50: 0.02 to 0.05 nM
[8]
  EC50: > 50 nM
[10]
  percentage binding (FACS heat-map): 3.81%
[11]
  percentage binding (FACS heat-map): 2.01%
[12]
  percentage binding (FACS heat-map): 64.4%
[13]
  percentage binding (FACS heat-map): 11.6%
[16]
  percentage binding (FACS heat-map): 3.47%
[17]
  percentage binding (FACS heat-map): 3.6%

Source: patent publication US20240010720A1 (IOMX THERAPEUTICS, published 2024)
